Laboratory results from publication PMC9536601, “Binding of adenovirus species C hexon to prothrombin and the influence of hexon on vector properties in vitro and in vivo” (PLoS Pathogens, 2022).

B1: hexon of wild-type human adenovirus type 2 (on virions) (natural protein)
chain: MATPSMMPQWSYMHISGQDASEYLSPGLVQFARATETYFSLNNKFRNPTVAPTHDVTTDRSQRLTLRFIPVDREDTAYSYKARFTLAVGDNRVLDMASTYFDIRGVLDRGPTFKPYSGTAYNALAPKGAPNSCEWEQTEDSGRAVAEDEEEEDEDEEEEEEEQNARDQATKKTHVYAQAPLSGETITKSGLQIGSDNAETQAKPVYADPSYQPEPQIGESQWNEADANAAGGRVLKKTTPMKPCYGSYARPTNPFGGQSVLVPDEKGVPLPKVDLQFFSNTTSLNDRQGNATKPKVVLYSEDVNMETPDTHLSYKPGKGDENSKAMLGQQSMPNRPNYIAFRDNFIGLMYYNSTGNMGVLAGQASQLNAVVDLQDRNTELSYQLLLDSIGDRTRYFSMWNQAVDSYDPDVRIIENHGTEDELPNYCFPLGGIGVTDTYQAIKANGNGSGDNGDTTWTKDETFATRNEIGVGNNFAMEINLNANLWRNFLYSNIALYLPDKLKYNPTNVEISDNPNTYDYMNKRVVAPGLVDCYINLGARWSLDYMDNVNPFNHHRNAGLRYRSMLLGNGRYVPFHIQVPQKFFAIKNLLLLPGSYTYEWNFRKDVNMVLQSSLGNDLRVDGASIKFDSICLYATFFPMAHNTASTLEAMLRNDTNDQSFNDYLSAANMLYPIPANATNVPISIPSRNWAAFRGWAFTRLKTKETPSLGSGYDPYYTYSGSIPYLDGTFYLNHTFKKVAITFDSSVSWPGNDRLLTPNEFEIKRSVDGEGYNVAQCNMTKDWFLVQMLANYNIGYQGFYIPESYKDRMYSFFRNFQPMSRQVVDDTKYKEYQQVGILHQHNNSGFVGYLAPTMREGQAYPANVPYPLIGKTAVDSITQKKFLCDRTLWRIPFSSNFMSMGALTDLGQNLLYANSAHALDMTFEVDPMDEPTLLYVLFEVFDVVRVHQPHRGVIETVYLRTPFSAGNATT
notes: hexon of human adenovirus type 2 (species C), whole hexon as it stands in the capsid of the virion; Immobilised as whole virions; also called Ad2; source: wild-type virus from ATCC, grown on 293 cells, virions purified by CsCl ultracentrifugation
B2: hexon of wild-type human adenovirus type 5 (on virions) (natural protein)
chain: ATPSMMPQWSYMHISGQDASEYLSPGLVQFARATETYFSLNNKFRNPTVAPTHDVTTDRSQRLTLRFIPVDREDTAYSYKARFTLAVGDNRVLDMASTYFDIRGVLDRGPTFKPYSGTAYNALAPKGAPNPCEWDEAATALEINLEEEDDDNEDEVDEQAEQQKTHVFGQAPYSGINITKEGIQIGVEGQTPKYADKTFQPEPQIGESQWYETEINHAAGRVLKKTTPMKPCYGSYAKPTNENGGQGILVKQQNGKLESQVEMQFFSTTEATAGNGDNLTPKVVLYSEDVDIETPDTHISYMPTIKEGNSRELMGQQSMPNRPNYIAFRDNFIGLMYYNSTGNMGVLAGQASQLNAVVDLQDRNTELSYQLLLDSIGDRTRYFSMWNQAVDSYDPDVRIIENHGTEDELPNYCFPLGGVINTETLTKVKPKTGQENGWEKDATEFSDKNEIRVGNNFAMEINLNANLWRNFLYSNIALYLPDKLKYSPSNVKISDNPNTYDYMNKRVVAPGLVDCYINLGARWSLDYMDNVNPFNHHRNAGLRYRSMLLGNGRYVPFHIQVPQKFFAIKNLLLLPGSYTYEWNFRKDVNMVLQSSLGNDLRVDGASIKFDSICLYATFFPMAHNTASTLEAMLRNDTNDQSFNDYLSAANMLYPIPANATNVPISIPSRNWAAFRGWAFTRLKTKETPSLGSGYDPYYTYSGSIPYLDGTFYLNHTFKKVAITFDSSVSWPGNDRLLTPNEFEIKRSVDGEGYNVAQCNMTKDWFLVQMLANYNIGYQGFYIPESYKDRMYSFFRNFQPMSRQVVDDTKYKDYQQVGILHQHNNSGFVGYLAPTMREGQAYPANFPYPLIGKTAVDSITQKKFLCDRTLWRIPFSSNFMSMGALTDLGQNLLYANSAHALDMTFEVDPMDEPTLLYVLFEVFDVVRVHRPHRGVIETVYLRTPFSAGNATT
notes: hexon of human adenovirus type 5 (species C), whole hexon as it stands in the capsid of the virion; Immobilised as whole virions; also called Ad5; source: wild-type virus from ATCC, grown on 293 cells, virions purified by CsCl ultracentrifugation

Key:
Details in all cases: both partners purified
[1] = biological target: B1; test: SPR; Biacore T200; about 300 to 5,000 RU of Ad virions immobilised on a CM5 chip, coagulation factors flowed over at four concentrations, 50 uL/min; running buffer 10 mM HEPES, 150 mM NaCl, 1 mM CaCl2, 0.5 mM MgCl2, 0.1% BSA, 0.05% polysorbate 20, pH 7.4; regeneration with 3 mM EDTA; global fit to a 1:1 kinetic interaction model, double referencing
[2] = biological target: B2; test: as above
[3] = biological target: T1, hexon of the E1/E3-deleted Ad5 vector Ad5.0 (wild-type Ad5 capsid, on virions) (human adenovirus 5, UniProt P04133 2-952); test: as above
T1 construct: hexon of human adenovirus type 5, unchanged, as it stands in the capsid of the vector; Immobilised as whole vector virions; source: E1/E3-deleted Ad5 vector grown on 293 cells, virions purified by CsCl ultracentrifugation

[4] = biological target: T2, human prothrombin (coagulation factor II) (human, UniProt P00734 44-622, gamma-carboxylated glutamate residues in the Gla domain); test: as above
T2 construct: prothrombin (FII), human, plasma-derived; also called human FII; FII; source: bought: Haematologic Technologies, Inc. (HCP-0010), plasma-derived

[5] = biological target: T3, human prothrombin (coagulation factor II) (human, UniProt P00734 44-622, γ-carboxylated glutamate residues in the Gla domain (positions not given)); test: SPR; Biacore T200; about 300 to 5,000 RU of Ad virions immobilised on a CM5 chip, coagulation factors flowed over at four concentrations, 50 uL/min; 10 mM HEPES, 150 mM NaCl, 1 mM CaCl2, 0.5 mM MgCl2, 0.1% BSA, 0.05% polysorbate 20, pH 7.4; global fit to a 1:1 kinetic interaction model, double referencing
T3 construct: prothrombin (FII), human, plasma-derived; also called Human FII; FII; source: bought: Haematologic Technologies, Inc. (HCP-0010), plasma-derived; dialyzed

Row | Binder | koff [1] [s⁻¹] | kon [1] [M⁻¹ s⁻¹] | Kd [2] [nM] | koff [2] [s⁻¹] | kon [2] [M⁻¹ s⁻¹] | Kd [3] [nM] | koff [3] [s⁻¹] | kon [3] [M⁻¹ s⁻¹] | Kd [4] [nM] | koff [4] [s⁻¹] | kon [4] [M⁻¹ s⁻¹] | Kd [1] [nM] | Kd [5] [nM]
1 | bovine coagulation factor X (natural protein, gamma-carboxylated glutamate residues in the Gla domain, coagulation factor X, bovine, plasma-derived; Pretreated with 125 uM GGACK (EGRCK); written here as one entry; also called bovine FX; source: bought: Haematologic Technologies, Inc. (BCX-1050), plasma-derived) ANSFLEEVKQGNLERECLEEACSLEEAREVFEDAEQTDEFWSKYKDGDQCEGHPCLNQGHCKDGIGDYTCTCAEGFEGKNCEFSTREICSLDNGGCDQFCREERSEVRCSCAHGYVLGDDSKSCVSTERFPCGKFTQGRSRRWAIHTSEDALDASELEHYDPADLSPTESSLDLLGLNRTEPSAGEDGSQVVRIVGGRDCAEGECPWQALLVNEENEGFCGGTILNEFYVLTAAHCLHQAKRFTVRVGDRNTEQEEGNEMAHEVEMTVKHSRFVKETYDFDIAVLRLKTPIRFRRNVAPACLPEKDWAEATLMTQKTGIVSGFGRTHEKGRLSSTLKMLEVPYVDRSTCKLSSSFTITPNMFCAGYDTQPEDACQGDSGGPHVTRFKDTYFVTGIVSWGEGCARKGKFGVYTKVSNFLKWIDKIMKARAGAAGSRGHSEAPATWTVPPPLPL | 0.0142 | 194000 | 280 | 0.115 | 410000 | 270 | 0.0711 | 262000 |  |  |  |  | 
2 | B1 |  |  |  |  |  |  |  |  | 4.5 | 0.000393 | 87400 |  | 
3 | mouse prothrombin (coagulation factor II) (natural protein, gamma-carboxylated glutamate residues in the Gla domain, prothrombin (FII), mouse, plasma-derived; also called mouse FII) not shown | 0.000393 | 69700 | 2100 | 0.0518 | 24500 | 2000 | 0.0361 | 18000 |  |  |  | 5.6 | 
4 | hexon of Ad5.5 (Ad5 vector, hexon HVR7 VINTDTL), on the virion (natural protein, human adenovirus type 5, hexon of human adenovirus type 5, whole as in the capsid of the virion; HVR7 segment changed; The whole virion was immobilised; source: 293 cells, virions purified by CsCl ultracentrifugation) ATPSMMPQWSYMHISGQDASEYLSPGLVQFARATETYFSLNNKFRNPTVAPTHDVTTDRSQRLTLRFIPVDREDTAYSYKARFTLAVGDNRVLDMASTYFDIRGVLDRGPTFKPYSGTAYNALAPKGAPNPCEWDEAATALEINLEEEDDDNEDEVDEQAEQQKTHVFGQAPYSGINITKEGIQIGVEGQTPKYADKTFQPEPQIGESQWYETEINHAAGRVLKKTTPMKPCYGSYAKPTNENGGQGILVKQQNGKLESQVEMQFFSTTEATAGNGDNLTPKVVLYSEDVDIETPDTHISYMPTIKEGNSRELMGQQSMPNRPNYIAFRDNFIGLMYYNSTGNMGVLAGQASQLNAVVDLQDRNTELSYQLLLDSIGDRTRYFSMWNQAVDSYDPDVRIIENHGTEDELPNYCFPLGGVINTDTLTKVKPKTGQENGWEKDATEFSDKNEIRVGNNFAMEINLNANLWRNFLYSNIALYLPDKLKYSPSNVKISDNPNTYDYMNKRVVAPGLVDCYINLGARWSLDYMDNVNPFNHHRNAGLRYRSMLLGNGRYVPFHIQVPQKFFAIKNLLLLPGSYTYEWNFRKDVNMVLQSSLGNDLRVDGASIKFDSICLYATFFPMAHNTASTLEAMLRNDTNDQSFNDYLSAANMLYPIPANATNVPISIPSRNWAAFRGWAFTRLKTKETPSLGSGYDPYYTYSGSIPYLDGTFYLNHTFKKVAITFDSSVSWPGNDRLLTPNEFEIKRSVDGEGYNVAQCNMTKDWFLVQMLANYNIGYQGFYIPESYKDRMYSFFRNFQPMSRQVVDDTKYKDYQQVGILHQHNNSGFVGYLAPTMREGQAYPANFPYPLIGKTAVDSITQKKFLCDRTLWRIPFSSNFMSMGALTDLGQNLLYANSAHALDMTFEVDPMDEPTLLYVLFEVFDVVRVHRPHRGVIETVYLRTPFSAGNATT |  |  |  |  |  |  |  |  |  |  |  |  | 233
5 | B2 |  |  |  |  |  |  |  |  | 39 | 0.00321 | 83500 |  | 
6 | mouse coagulation factor X (natural protein, gamma-carboxylated glutamate residues in the Gla domain, coagulation factor X, mouse, plasma-derived; Pretreated with 125 uM GGACK (EGRCK); written here as one entry; also called mouse FX; source: bought: Haematologic Technologies, Inc. (MCX-5050), plasma-derived) ANSFFEEFKKGNLERECMEEICSYEEVREIFEDDEKTKEYWTKYKDGDQCESSPCQNQGACRDGIGGYTCTCSEGFEGKNCELFVRKLCRLDNGDCDQFCREEQNSVVCSCASGYFLGNDGKSCISTAPFPCGKITTGRRKRSVALNTSDSELDLEDALLDEDFLSPTENPIELLNLNETQPERSSDDLVRIVGGRECKDGECPWQALLINEDNEGFCGGTILNEFYILTAAHCLHQARRFKVRVGDRNTEKEEGNEMVHEVDVVIKHNKFQRDTYDYDIAVLRLKTPITFRMNVAPACLPQKDWAESTLMTQKTGIVSGFGRTHEKGRQSNILKMLEVPYVDRNTCKLSTSFSITQNMFCAGYEAKLEDACQGDSGGPHVTRFKNTYYVTGIVSWGEGCARKGKYGIYTKVTTFLKWIDRSMKARVGPTAETPRTAGPPN | 0.00018 | 238000 |  | 8.4e-05 | 242000 | 0.32 | 8.61e-05 | 266000 |  |  |  |  | 
7 | bovine prothrombin (coagulation factor II) (natural protein, gamma-carboxylated glutamate residues in the Gla domain, prothrombin (FII), bovine, plasma-derived; also called bovine FII; source: bought: Haematologic Technologies, Inc. (BCP-1010), plasma-derived) not shown | 0.00531 | 37800 |  |  |  |  |  |  |  |  |  | 140 | 
